# Measured values as given in US12540161B2, “Linkers” (BicycleTx Limited, priority 2020, dated 2026).
# What was measured:
# in vivo [1] = conditions: male, CD-1, mouse, plasma, intravenous
# Procedure: Male CD-1 mice were dosed with each Bicycle Conjugate formulated in 25 mM histidine HCl, 10% sucrose pH 7 via tail vein injection. Serial bleeding (about 80 μL blood/time point) was performed via submadibular or saphenous vein at each time point. All blood samples were immediately transferred into prechilled microcentrifuge tubes containing 2 μL K2-EDTA (0.5M) as anti-coagulant and placed on wet ice. Blood samples were immediately processed for plasma by centrifugation at approximately 4° C., 3000 g. The precipitant including internal standard (350 μL) was immediately added into the 35 μL plasma sample, mixed well and centrifuged at 3220 g, 4° C. for 15 minutes. The supernatant was transferred into pre-labeled polypropylene microcentrifuge tubes, and then quick-frozen over dry ice. The samples were stored at 70° C. or below as needed until analysis. Supernatant samples were mixed with 50 μL water, vortexed well and centrifuged at 3220 g, 4° C. for 15 minutes. A sample of the supernatant was injected for LC-MS/MS analysis using an Acquity UPLC with AB Sciex 6500+ Triple Quad MS in positive ion mode to determine the concentrations of Bicycle Conjugate and released payload. Plasma concentration versus time data were analyzed by non-compartmental approaches using the Phoenix WinNonlin 6.3 software program. C0, Cl, Vdss, T1/2, AUC(0-inf), MRT(0-last), MRT(0-inf) nd graphs of plasma concentration versus time profile were reported.
# in vitro [2] = conditions: human, plasma, pH 7.4
# Procedure: (§1) Pooled frozen plasma was thawed in a water bath at 37° C. Plasma was centrifuged at 4000 rpm for 5 min and the clots were removed if any. The pH will be adjusted to 7.4±0.1 if required. 1 mM stock solution was prepared with DMSO. Propantheline (positive control) was prepared by making a 100 μM working solution by diluting 5 μL of the stock solution (10 mM) with 495 μL ultra pure water. 100 μM working solutions of test compounds were made up by diluting 10 μL of the stock solution (1 mM) with 90 μL DMSO. 98 μL of blank plasma was spiked with 2 μL of dosing solution (100 μM) to achieve 2 μM of the final concentration in duplicate and samples were incubated at 37° C. in a water bath. At each time point (0, 1, 2, 4, 6 and 24 hr), 400 μL of 200 ng/mL tolbutamide and labetalol in 100% MeOH was added and mixed thoroughly to precipitate proteins. Sample plates were centrifuged at 4,000 rpm for 15 min. An aliquot of supernatant (150 μL) was transferred from each well before submitting for LC-MS/MS analysis.
# (§2) The % remaining test compound after incubation in plasma was calculated using following equation: Remaining=100×(PAR at appointed incubation time/PAR at T0 time)
# (§3) where PAR is the peak area ratio of analyte versus internal standard (IS).
# (§4) The appointed incubation time points are T0 (0 hr), Tn (n=0, 1, 2, 4, 6, 24 hr). The half-life (T½) was calculated from a log linear plot of concentration versus time.
# (§5) When the % remaining value at the maximal incubation time, which was 24 hr in this study, was higher than 75%, it is considered to be within the acceptable experimental variation.
# Cathepsin B = Cathepsin B (Homo sapiens, UniProt P07858); experiment: Cathepsin B (CatB) cleavage assay; type: biochemical; conditions: BTCs
# [3] = rat
# [4] = Plasma stability analysis, mouse plasma; conditions: plasma, BTCs
# in vitro [5] = conditions: rat, plasma
# in vitro [6] = conditions: mouse, plasma
# in vivo [7] = conditions: rat, plasma
# in vitro [8] = conditions: cynomolgus monkey, plasma
# in vitro [9] = conditions: rat, plasma, pH 7.4
# Procedure: as §1, §2, §3, §4, §5
# in vitro [10] = conditions: human, plasma
smiles,measurement,setting,value
"CC[C@H](C)[C@@H]([C@@H](CC(=O)N1CCC[C@H]1[C@H](OC)[C@@H](C)C(=O)N[C@H](C)[C@@H](O)c1ccccc1)OC)N(C)C(=O)[C@@H](NC(=O)[C@H](C(C)C)N(C)C(=O)OCc1ccc(NC(=O)[C@H](CCCNC(N)=O)NC(=O)[C@@H](NC(=O)Cn2cc(CCC(=O)NCCC(=O)N(C)CC(=O)N(C)CC(=O)N(C)CC(=O)N(C)CC(=O)N(C)CC(=O)N(C)CC(=O)N(C)CC(=O)N(C)CC(=O)N(C)CC(=O)N(C)CC(=O)N[C@@H](C)C(=O)N[C@H]3CN(C)Cc4cc5cc(c4)CN(C)C[C@@H](C(N)=O)NC(=O)[C@H](C(C)(C)C)NC(=O)[C@H](CC(=O)O)NC(=O)[C@H](Cc4ccc(O)cc4)NC(=O)[C@H](Cc4ccccc4)NC(=O)[C@H](CC(=O)O)NC(=O)[C@H](CCC(=O)O)NC(=O)[C@H](CSC5)NC(=O)[C@@H](C)NC(=O)[C@H](Cc4cccc5ccccc45)NC(=O)[C@H](CCC(=O)O)NC(=O)[C@H](CC(N)=O)NC(=O)[C@@H](C)NC3=O)nn2)C(C)C)cc1)C(C)C [BCY7761, MMAE-PAB-(Cit-Val)-BCY3900, reference compound]",C0,in vivo [1],24800 ng/mL
same,Vd,in vivo [1],0.04 L/kg
same,clearance,in vivo [1],1 mL/min/kg
same,half-life,in vivo [1],0.48 h
same,half-life at 2 μM,in vitro [2],> 57.8 h
same,"% Parent remaining after incubation with CatB, 0 h",Cathepsin B; 0 h,100%
same,"% Parent remaining after incubation with CatB, 1 h",Cathepsin B; 1 h,33.687%
same,"% Parent remaining after incubation with CatB, 2 h",Cathepsin B; 2 h,15.1%
same,"% Parent remaining after incubation with CatB, 4 h",Cathepsin B; 4 h,4.93%
same,"% Parent remaining after incubation with CatB, 6 h",Cathepsin B; 6 h,1.01%
same,"% Parent remaining after incubation with CatB, 24 h",Cathepsin B; 24 h,0.462%
same,half-life at 40 μM,Cathepsin B; read-out: CatB t1/2 (converted),0.9 h
same,AUC ratio,[3],0.00445
same,half-life at 2 μM,"[4]; pH 7.4, Mouse plasma t1/2 (EDTA), EDTA anticoagulant",9.1 h
same,half-life at 2 μM,"[4]; pH 7.4, Mouse plasma t1/2 (Herparin), heparin anticoagulant",9.2 h
same,half-life at 2 μM,"[4]; pH 7.4, Mouse plasma t1/2 expt 2 (EDTA), EDTA anticoagulant, experiment 2",6.8 h
same,fraction unbound,"in vitro [5]; PPB (% Unbound), rat (Table 9)",0.11
same,fraction unbound,in vitro [5]; Plasma protein binding (% Unbound) Rat,0.106
same,fraction unbound,in vitro [6],0.173
same,half-life,in vivo [7],0.49 h
same,fraction unbound,in vitro [8],0.187
same,half-life at 2 μM,in vitro [9],56.8 h
same,fraction unbound,in vitro [10],0.211
